Data reported in patent US8846363B2, “Compositions of and methods of using sulfatases from Flavobacterium heparinum” (priority 2007, dated 2014).

Columns and labels:
Format in all cases: biochemical
[1] = Coupled N-sulfamidase/α-glucosidase fluorimetric plate assay (reaction conditions, steady-state kinetics)
Description: (§1) Indirect measurement of enzyme activity was also made using a fluorimetrically-based plate assay in which the prerequisite desulfation of the appropriate glucopyranoside 1→4 methlybelliferone substrate by either the 6-O-sulfatase or N-sulfamidase was coupled to the glucosidase-mediated hydrolysis of the stereo-specific 1→4 glycosidic linkage between the pyranose ring and the adjoining fluorophore. Release of the free fluorophore (4-MU) was monitored spectroscopically as described above for the arylsulfatase assay using 4-MU sulfate. The two sulfatase assays differed in the choice of substrate in accordance to their specificity as well as the glucosidase added during the second, […] step. For the 6-O-sulfatase, the hydrolysis of the substrate 4-MU-β-D-GlcNAc,6S at the 6-OH position was coupled to β-glucosidase purified from sweet almonds (MP Biomedicals, Solon, Ohio, Catalog No. 195197). Likewise, N-sulfamidase hydrolysis of 4-MU-α-D-GlcNS at the 2-amino position was coupled to α-glucosidase (MP Biomedicals, Catalog No. 153487). […] The presumption of the first (sulfatase) activity being the rate-limiting step was established experimentally. Reaction conditions were optimized to satisfy three related criteria: 1) linear readout of fluorescent signal which is directly proportional to sulfatase activity; 2) quantitative release of 4-MU by glucosidase activity under every biochemical condition examined and; 3) negligible fluorescent quenching of the free chromophore.
Coupled N-sulfamidase assay was generally described for the 6-O-sulfatase, but with the following modifications: 4-MU-GlcNS as substrate, 50 mM sodium acetate at pH 6.0 (instead of 5.5) and 1 μM enzyme. For the second enzyme step, 5 units of α-glucosidase were added. Enzyme incubation was carried out for 22 hours at 37° C. The obvious difference in enzyme efficacies between α-glucosidase versus β-glucosidase is reflected in the substantially longer incubation times required for the α-glucosidase to quantitatively hydrolyze the glycosidic α1→4 linkage between the fluorophore and the desulfated glucosamine. […]

[2] = CE-LIF detection of sequentially degraded oligosaccharides; conditions: after Δ4,5 glycuronidase treatment of ΔUHNSIHNSIHNS
Procedure: The APTS derivitization protocol was adapted from Chen et al. (Chen F. T. A., and Evangelista R. A. (1995) Analytical Biochemistry 230, 273-280). Briefly, 2 μl of 100 mM 9-aminopyrene-1,4,6-trisulfonate (APTS) in 25% acetic acid (v/v) were mixed with 10 μl of 1M sodium cyanoborohydride in tetrohydrofuran and 1 μmol of saccharide. The reaction mixture was incubated at 75° C. for 2 hr and was diluted 1:100 prior to CE analysis. CE-LIF was performed on a Beckman Coulter ProteomeLab PA 800 with 488 nm argon LIF module. Samples were loaded onto a N—CHO capillary (50 μm I.D.×65 cm total length) using 0.5 psi of pressure at the anode for 20 sec. Electrophoretic separations were performed using a 20 kV potential in a 100 mM sodium borate, pH 10.2 buffer for 15 min at 25° C. Fluorescence emission spectra were collected using a 520 nm narrow band filter.

[3] = Coupled 6-O-sulfatase/β-glucosidase fluorimetric plate assay (reaction conditions, steady-state kinetics)
Description: as §1
For the 6-O-sulfatase/β-glucosidase assay, the standard reaction conditions included 2 μM recombinant enzyme, 50 mM sodium acetate buffer, pH 5.5, and 5 mM CaCl2 in a 20 μl reaction volume. 4-MU-GlcNAc,6S substrate concentration was varied from 0.1-2 mM. 2 μL of enzyme were added to each well of a microtiter plate (prechilled on ice), plate gently vortexed, and contents of each well spun down for 1 minute at 500×g, 4° C. […] Reactions were transferred to a black 96 well, flat-bottom FIA-plate and fluorescence measured as described above for the detection of free 4-MU. […]

B1: Flavobacterium heparinum N-sulfamidase (ORF C), recombinant, NH2-terminal truncation lacking signal sequence, SEQ ID NO: 4 (Pedobacter heparinus DSM 2366) (protein)
chain: SCTSPEKKTDRPNILMIMSDNQSWNHVGSYGDQTVRTPNMDRIAKEGVRFTNAFCSSPSCTPARAGMLTGQDIWRLEDGGNLWGVLPVKYKVYPDLLEEAGYAIGFQGKGWGPGSFEANKRPRNPAGNEFKSFGAFLKDKKEGPWCYWISSHEPHRPYVEGSGEKAGIDPNKVKVPAYLPDHISIRKDIADYYAAVETFDRELGEALDQLKASGELDNTVIVVCSDNGWQMPRGLANLYDFGTHVPLIISWPGKFKQDVVADNLVTLNDLAPTFLQLGKVPVPADMTGKSLLPIVEAGKKDEKPRDYVVLGRERHAFVRRHGLGYPGRAIRTKDYLYIKNYEPNRWPAGDPPFYGDIDPYMFNWPGETKYYLIEHKDDPKVKSFFELGMGKRPAEELFDINKDPDELHNLAALPEYQKIKQELVAKLRNYLVATKDPRETNGNIQIWDTAAYFSEIDKTPKPSKEMQKRFKLDSSYNYLK
notes: E. coli BL21(DE3), N-terminal 6xHis removed by thrombin
calcium requirement for activity [1]: required calcium for activity | effect of Mg^+2 or Mn^+2 on activity ([1]; 1 mM or 5 mM divalent metal): only negligible effects | activity remaining relative to the zero NaCl control ([1]; 1 M NaCl): less than 20% | desulfation of oligosaccharide at the non-reducing end [2]: does desulfate some oligosaccharides in an exolytic fashion

B2: Flavobacterium heparinum 6-O-sulfatase (ORF B), recombinant, NH2-terminal truncation lacking signal sequence, SEQ ID NO: 2 (Pedobacter heparinus DSM 2366) (protein)
chain: TLMSCQQPKPAESAKRPNIVFIMTDDHTIQAISAYGSKLVKTPNLDRIANEGMLFNNCFVTNAVCGPSRATILTGKYSHLNGLTDNSKVFDSTQVIYPQLLKKAGYQTAMIGKWHLGSTPMGFDYYSILPNQGQYYQPEFIENGHLVKEKGYVTDLITDKAIGFLEKRDHDKPFLMIYQHKAPHRNWLPAPRHLGMFDDTVFPEPANLLDDFKGRGRAAKEQLMNISTDMWPAWDLKMLSTAQLDSMAKLPVSPKFKDAKGDDYQQANDPSLDKARFFEVYNRMTDAEKVQWRKVYDKRVAEFKRLNPKGADLVRWKYQQYMRDYLACVVSVDENVGRLMDYLKKIGELDNTIIVYTSDQGFYLGEHGYFDKRFMYDESFRTPLMVRYPPSVKAGSVSNAFAMNLDFAPTLLDYAGVKIPADMQGLSLRPVLDNAGKSPENWRKAVYYHYYEFPSWHMVKRHYGIRTERYKLIHFYNDIDEWELYDMQKDPHEMQNLYNDKAYEPIIKDLKVQMKKLQVQYKDTNPTEAL
notes: as for B1
effect of Mg^+2 or Mn^+2 on activity ([3]; 1 mM or 5 mM divalent metal): only negligible effects | activity remaining relative to the zero NaCl control ([3]; 1 M NaCl): less than 20% | activation by the presence of calcium ([3]; calcium added): 2-3 fold
